Test results: publication PMC3338918

B1: human PlGF-2 (ligand)
chain: LPAVPPQQWALSAGNGSSEVEVVPFQEVWGRSYCRALERLVDVVSEYPSEVEHMFSPSCVSLLRCTGCCGDENLHCVPVETANVTMQLLKIRSGDRPSYVELTFSQHVRCECRPLREKMKPERRRPKGRGKRRREKQRPTDCHLCGDAVPRR
B2: murine PlGF-2 (ligand)
chain: VHSQGALSAGNNSTEVEVVPFNEVWGRSYCRPMEKLVYILDEYPDEVSHIFSPSCVLLSRCSGCCGDEGLHCVPIKTANITMQILKIPPNRDPHFYVEMTFSQDVLCECRPILETTKAERRKTKGKRKRSRNSQTEEPHP

Assays:
[1] = molecular target: VEGF Trap (aflibercept) (human); assay: SPR; Biacore 3000, CM5 chip, 25°C, HBS-T (10 mM Hepes, 150 mM NaCl, 3.4 mM EDTA, 0.05% polysorbate 20, pH 7.4); VEGF Trap or receptor-Fc captured at low density on amine-coupled Protein A, ligands injected (1.0–0.062 nM VEGF-A, 2.5–0.156 nM VEGF-B(10-108), 5.0–0.078 nM PlGF); kd of VEGF-A ligands by the 'fixed kd' procedure on a Biacore 2000 (~2–3 h); KD = kd/ka
Sequence of VEGF Trap (aflibercept) (human) (chain, INN chains, looked up, as listed by the source): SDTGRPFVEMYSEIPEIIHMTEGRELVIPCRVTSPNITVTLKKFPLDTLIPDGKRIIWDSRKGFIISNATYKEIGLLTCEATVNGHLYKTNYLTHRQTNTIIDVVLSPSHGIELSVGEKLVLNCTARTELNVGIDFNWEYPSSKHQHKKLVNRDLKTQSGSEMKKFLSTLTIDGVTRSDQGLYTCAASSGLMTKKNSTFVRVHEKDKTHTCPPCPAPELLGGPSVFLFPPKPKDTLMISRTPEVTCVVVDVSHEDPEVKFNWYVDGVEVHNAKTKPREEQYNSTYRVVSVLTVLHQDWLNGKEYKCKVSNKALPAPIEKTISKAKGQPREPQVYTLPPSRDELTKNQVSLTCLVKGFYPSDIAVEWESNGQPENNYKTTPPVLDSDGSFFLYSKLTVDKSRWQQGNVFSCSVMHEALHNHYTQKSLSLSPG

[2] = molecular target: VEGF Trap (aflibercept) (human); assay: KinExA solution equilibrium assay; KinExA 3000, room temperature (25°C); VEGF Trap (1–50 pM) equilibrated 10–96 h with varying ligand; unbound inhibitor captured on VEGF-A165-coupled Azlactone beads and detected with Cy5 anti-human IgG; one-site homogeneous binding model
human VEGFR1-hFc (human) = human VEGFR1-hFc (human) (UniProt P17948)
Sequence of human VEGFR1-hFc (human) (P17948 27-758): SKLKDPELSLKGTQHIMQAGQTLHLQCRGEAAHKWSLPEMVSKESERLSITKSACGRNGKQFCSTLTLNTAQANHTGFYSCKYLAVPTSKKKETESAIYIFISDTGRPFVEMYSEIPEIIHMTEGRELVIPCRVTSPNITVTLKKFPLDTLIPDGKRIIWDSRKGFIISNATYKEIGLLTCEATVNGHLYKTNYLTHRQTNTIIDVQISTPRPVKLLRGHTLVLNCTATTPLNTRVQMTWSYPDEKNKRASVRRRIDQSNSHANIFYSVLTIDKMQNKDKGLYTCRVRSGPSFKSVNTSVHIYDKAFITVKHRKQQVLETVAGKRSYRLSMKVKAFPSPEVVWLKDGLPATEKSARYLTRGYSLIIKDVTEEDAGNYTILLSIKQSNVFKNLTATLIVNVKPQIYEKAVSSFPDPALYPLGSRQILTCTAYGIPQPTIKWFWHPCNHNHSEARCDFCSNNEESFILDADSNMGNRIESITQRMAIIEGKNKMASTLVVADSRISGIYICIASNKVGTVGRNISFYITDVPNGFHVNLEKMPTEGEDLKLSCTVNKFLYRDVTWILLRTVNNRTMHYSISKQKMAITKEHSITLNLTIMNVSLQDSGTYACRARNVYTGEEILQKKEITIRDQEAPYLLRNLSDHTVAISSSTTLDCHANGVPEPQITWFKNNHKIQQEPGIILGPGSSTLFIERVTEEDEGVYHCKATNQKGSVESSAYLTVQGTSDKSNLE

Binder | Kd [1] | koff [1] | kon [1] | Kd [2] | EC50 of luciferase activation in HEK293/VEGFR1 cells (dose response, 0.022 pM to 4.0 nM) (human VEGFR1-hFc (human))
B1 | 0.0389 nM | 6.81e-05 s⁻¹ | 1.75e+06 M⁻¹ s⁻¹ | 0.0207 nM | 29 pM
B2 | 0.00332 nM |  |  |  | 10 pM
